Measurements: patent US20220017627A1 (Bristol-Myers Squibb, published 2022)

Assays:
hIL-7R (Example 11) [1] = biological target: T1, hIL-7R (Example 11) (human, UniProt P16871 21-239); test: Biacore, mAb captured on anti-human IgG CM5 chip, hu IL-7R as analyte (top curve 33.3nM), HBS-P+ pH 7.4, 37 C
T1 construct: Called full length hIL-7R for the mRNA display and hIL-7R for the Biacore runs; also called full length hIL-7R; human IL-7R
T1 chain: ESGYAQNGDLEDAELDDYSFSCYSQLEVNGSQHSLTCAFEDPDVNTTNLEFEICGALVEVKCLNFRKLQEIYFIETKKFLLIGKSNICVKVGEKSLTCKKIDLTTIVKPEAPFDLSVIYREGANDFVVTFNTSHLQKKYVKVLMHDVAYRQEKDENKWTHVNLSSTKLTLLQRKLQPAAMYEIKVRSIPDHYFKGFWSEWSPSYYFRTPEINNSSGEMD
Source text: (§1) Affinity (KD) of each variant binding to hIL-7R was obtained using this approach, and compared against the enrichment ratio (ER) obtained through NGS heat map analysis for the same variant.

[2] = biological target: T2, his-tagged human-IL7R extracellular domain construct (human, UniProt P16871 21-239); test: SPR (Biacore T200), pH 6.0 against pH 7.4
T2 construct: Generated in house; also called human IL-7Rα; not shown: his tag
T2 chain: T1 chain
Description: (§2) Briefly, experiments were performed on a BIACORE™ T200 instrument (GE Healthcare, Chicago, Ill., USA) in a running buffer consisting of 10 mM NaPO4, 130 mM NaCl, 0.05% p20 (PBS-T) at either pH 7.4 or pH 6.0. The chip surface was prepared by immobilizing protein A on flow cell 1, 2, 3, and 4 of a CM5 sensor chip using ethyl(dimethylaminopropyl) carbodiimide/NHS to a density of 4000 RU. […] Purified extracellular domain constructs (generated in house) of his-tagged human-IL7R or cynomolgus-IL7R were tested for binding using a 2 fold serial dilution from 500 nM to 7.8 nM, with 180 s association time and 360 s dissociation time at 30 μl/min. Regeneration between cycles was accomplished using 2×30 second injections of 10 mM glycine-HCL pH 1.5. The data were analyzed using the Biacore T200 Evaluation software (GE Healthcare), and fit to a 1:1 Langmuir model.

[3] = biological target: T3, his-tagged cynomolgus-IL7R extracellular domain construct (cynomolgus, UniProt Q38IC7 21-240); test: SPR (Biacore T200), pH 6.0 against pH 7.4
T3 construct: also called cyno IL-7Rα; not shown: his tag
T3 sequence: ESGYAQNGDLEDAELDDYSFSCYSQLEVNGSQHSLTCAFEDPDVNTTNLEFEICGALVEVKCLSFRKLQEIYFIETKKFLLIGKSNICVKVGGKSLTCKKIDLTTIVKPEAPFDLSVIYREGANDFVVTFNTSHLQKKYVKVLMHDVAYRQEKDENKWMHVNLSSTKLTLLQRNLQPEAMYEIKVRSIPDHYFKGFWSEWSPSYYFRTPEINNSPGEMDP
Description: as §2

[4] = biological target: T4, human IL-7Rα expressed on human T cells (whole blood / PBMCs) (human, UniProt P16871 21-239); test: flow cytometry binding, CD4+CD45RA- T cells in whole blood
T4 construct: Native receptor on primary cells; also called CD127
T4 chain: T1 chain

hIL-7R (Example 11) [5] = biological target: T1, hIL-7R (Example 11); test: SPR (Biacore), reference of the ratio [cont'd]
Source text: as §1

[6] = biological target: T4, human IL-7Rα expressed on human T cells …; test: flow cytometry binding, CD4+CD45RA+ T cells in whole blood
[7] = biological target: T5, cynomolgus IL-7Rα expressed on cynomolgus T cells / leukocytes (cynomolgus, UniProt Q38IC7 21-459); test: cell-based or functional assay
T5 sequence: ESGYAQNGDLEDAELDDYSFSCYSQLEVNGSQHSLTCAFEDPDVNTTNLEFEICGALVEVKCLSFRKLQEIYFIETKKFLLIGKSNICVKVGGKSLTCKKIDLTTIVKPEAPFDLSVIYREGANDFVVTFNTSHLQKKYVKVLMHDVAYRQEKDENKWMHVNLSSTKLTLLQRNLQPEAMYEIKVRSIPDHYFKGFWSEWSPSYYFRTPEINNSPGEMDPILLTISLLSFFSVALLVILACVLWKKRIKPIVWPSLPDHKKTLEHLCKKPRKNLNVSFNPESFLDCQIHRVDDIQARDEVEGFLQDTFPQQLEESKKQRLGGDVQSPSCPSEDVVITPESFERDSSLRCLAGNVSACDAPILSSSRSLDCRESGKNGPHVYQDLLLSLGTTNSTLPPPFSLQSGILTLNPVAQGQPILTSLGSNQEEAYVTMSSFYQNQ

[8] = biological target: T4, human IL-7Rα expressed on human T cells …; test: cell-based or functional assay
[9] = biological target: T2, his-tagged human-IL7R extracellular …; test: SPR (Biacore T200), antibody captured on protein A, his-tagged ECD as analyte, 37° C., pH 6.0
Description: as §2

[10] = biological target: T3, his-tagged cynomolgus-IL7R …; test: as above
Description: as §2

[11] = biological target: T2, his-tagged human-IL7R extracellular …; test: SPR (Biacore T200), antibody captured on protein A, his-tagged ECD as analyte, 37° C., pH 7.4
Description: as §2

[12] = biological target: T3, his-tagged cynomolgus-IL7R …; test: as above
Description: as §2

[13] = biological target: T4, human IL-7Rα expressed on human T cells …; test: flow cytometry binding, CD8+CD45RA- T cells in whole blood
[14] = biological target: T4, human IL-7Rα expressed on human T cells …; test: cell-based or functional assay
[15] = biological target: T5, cynomolgus IL-7Rα expressed on …; test: flow cytometry, occupancy of IL-7Ra on CD4+CD45RA+ T cells of cynomolgus monkeys after a single i.v. dose, against serum concentration
Description: To confirm the above cross-reactivity data, cellular binding and functional blockade were also assessed. […] Then, at day 8 post-administration, PBMCs were isolated from the animals.

[16] = biological target: T4, human IL-7Rα expressed on human T cells …; test: flow cytometry binding, CD8+CD45RA+ T cells in whole blood

- Kd (hIL-7R (Example 11) [1]): 1.4 nM
- koff (hIL-7R (Example 11) [1]): 0.00152 s⁻¹
- kon (hIL-7R (Example 11) [1]): 1.09e+06 M⁻¹ s⁻¹
- fold weaker binding at pH 6.0 than at pH 7.4 [2]: ~4 fold
- fold weaker binding at pH 6.0 than at pH 7.4 [3]: ~4 fold
- EC50 [4]: 3.3 nM
- KD Relative to 18B1 (hIL-7R (Example 11) [5]): 1
- EC50 [6]: 1.4 nM
- IC50 of IL-7 mediated pSTAT5 activation against serum antibody concentration, cynomolgus monkeys [7]: ~2
- pSTAT5 IC50, IL-7 stimulated CD4+CD45RA+ T cells, CD (n = 10) [8]: 0.36 nM
- pSTAT5 IC50, IL-7 stimulated CD4+CD45RA+ T cells, NHV (n = 19) [8]: 0.6 nM
- pSTAT5 IC50, IL-7 stimulated CD4+CD45RA+ T cells, UC (n = 21) [8]: 0.34 nM
- pSTAT5 IC50, IL-7 stimulated CD4+CD45RA- T cells, CD (n = 10) [8]: 0.36 nM
- pSTAT5 IC50, IL-7 stimulated CD4+CD45RA- T cells, NHV (n = 19) [8]: 0.52 nM
- pSTAT5 IC50, IL-7 stimulated CD4+CD45RA- T cells, UC (n = 21) [8]: 0.28 nM
- pSTAT5 IC50, IL-7 stimulated CD8+CD45RA+ T cells, CD (n = 10) [8]: 0.29 nM
- pSTAT5 IC50, IL-7 stimulated CD8+CD45RA+ T cells, NHV (n = 19) [8]: 0.43 nM
- pSTAT5 IC50, IL-7 stimulated CD8+CD45RA+ T cells, UC (n = 21) [8]: 0.29 nM
- pSTAT5 IC50, IL-7 stimulated CD8+CD45RA- T cells, CD (n = 10) [8]: 0.23 nM
- pSTAT5 IC50, IL-7 stimulated CD8+CD45RA- T cells, NHV (n = 19) [8]: 0.38 nM
- pSTAT5 IC50, IL-7 stimulated CD8+CD45RA- T cells, UC (n = 21) [8]: 0.22 nM
- Kd [9]: 5.3 nM
- koff [9]: 0.0013 s⁻¹
- kon [9]: 240000 M⁻¹ s⁻¹
- Kd [10]: 7 nM
- koff [10]: 0.0016 s⁻¹
- kon [10]: 230000 M⁻¹ s⁻¹
- Kd [11]: 1.3 nM
- koff [11]: 0.0004 s⁻¹
- kon [11]: 310000 M⁻¹ s⁻¹
- Kd [12]: 1.7 nM
- koff [12]: 0.0005 s⁻¹
- kon [12]: 290000 M⁻¹ s⁻¹
- EC50 [13]: 1.9 nM
- pSTAT5 IC50, CD4+CD45RA+ T cells in whole blood, IL-7 (0.25 ng/mL) [14]: 0.6 nM
- pSTAT5 IC50, CD4+CD45RA+ T cells in whole blood, IL-7 (2.0 ng/mL) [14]: 2.1 nM
- EC50 (read off the curve) [15]: ~0.04 µg/mL
- EC50 [16]: 2 nM
B1: Anti-IL-7R Antibody (Antibody A) (antibody, human IgG1, kappa, V domains shown)
VH: EVQLVESGGGLVQPGRSLRLSCAASGFTFDDHAMHWVRQAPGKGLEWVSGISWNSRGIGYADSVKGRFTIFRDNAKNSLYLQMNSLRAEDTALYYCAKDEYSRGYYVLDVWGQGTTVTVSS
VL: AIQLTQSPSSLSASVGDRVTITCRASQGISSALAWYQQKPGKAPKLLIYDASSLESGVPSRFSGSGSGTDFTLTISSLQPEDFATYYCQQFNSYPLWITFGQGTRLEIKR
notes: also called 18B1; 18B1 antibody
